Drawing on patent US20230064703A1, this text covers EC50 for 8 molecules.

B1: anti-GITR mouse monoclonal antibody 225A8D9 (antibody, V domains shown)
VH: QVQLQQSGPELVKPGASVKISCKASGYAFSSSWMNWVKQRPGKGLEWIGRIYPGDGNINYDGKFKGEATLTADKSSSTAYIQLSSLTSEDSAVYFCARSAWLGKTYVMDYWGQGTSVTVSS
VL: EIVVTQSPAITAASLGQKVTITCSASSSVTYMNWYQQKSGTSPKPWIYEISKLASGVPAHFSGSGSGTSYSLTISSLEAEDAAIYYCQQWNFPFTFGSGTKVEIR
B2: anti-GITR mouse monoclonal antibody 223H11H1 (antibody, V domains shown)
VH: EVQLQQSGPELVKPGASVKISCKASGYTFTAHYMNWVKKSQGKSLEWIGDINPDNGIIRYNQKFKDKATLTVDKSSSTVFLEFRSLASEDSAVYYCARREALDYWGQGSSVTVSS
VL: DVLMTQIPLSLTVSLGDQASISCRSSQSIVYSNGKVYLNWYQQKPGQSPKLLIYKVSDRFSGVPDRFSGSGSGTDFTLKINRVEAEDLGVYYCLQGSHIPWTFGGGTKLEIK
B3: anti-GITR mouse monoclonal antibody 204C10G12 (antibody, V domains shown)
VH: QVQLQQPGAELVKPGASVKMSCKASGYTFTSYWITWVKQRPGQGLEWIGDIYPGSDSTNYNEKFKNKATLTVDTSSSTAYMQLSSLTSEDSAVYYCARGDDFWYFDVWGTGTTVTVSS
VL: DVLMTQTPLSLPVSLGDQASISCRSSQSIVHSNGNTYLEWYLQKPGQSPKLLIYKVSNRFSGVPDRFSGSGSGTDFTLKISRVEAEDLGVYYCFQGSHVPLTFGAGTKLELK
B4: anti-GITR mouse monoclonal antibody 225H7D12 (antibody, V domains shown)
VH: QVQLQQSGAEVMKPGASVKLSCKTTGYRFTGYWIEWVKQRPGHGLEWIGEILPGSGVSNNNEKFRDKATFTADTSSNTAYIQLSSLTTDDSAIYYCARKASYYTMDYWGQGTSVTVSS
VL: QIVLTQSPAIMSASLGERVTMTCTASSSVSSFYFHWYQQKPGSSPKLWIYSISNLASGVPTRFSGSGSGTSYSLTISSMEAEDAATYYCHQYHRSPRTFGGGTKLEIK
B5: anti-GITR mouse monoclonal antibody 223F12C4 (antibody, V domains shown)
VH: QVQLQQSGAELVKPGASVKVSCKASGYSFTSYWIHWVKQRPGQGLEWIGRIHPSDGDIDHNEKFKGKATLTVDKSSSTAYMQLTSLTSEDSAVYYCLCYIMDYWGQGTSVTVSS
VL: DIQMNQSPSSLSASLGDTIAITCHASQNINVWLSWYQQKPGNIPKLLIYKAAKLQTGVPSRFSGSGSGTGFTLTISSLQPEDIATYYCHQGQDYPLTFGAGTKLELK
B6: anti-GITR mouse monoclonal antibody 384H3H11 (antibody, V domains shown)
VH: QVQLKQSGPGLVQPSQSLSITCTVSGFSLTSYGVHWVRQSPGKGLEWLGVIWSGGSTDYNAAFISRLSISKDNSKSQVFFKMNSLQANDTAIYYCARIGLRSFAYWGQGTLVTVSA
VL: DIVMTQSPSSLTVTAGEKVTMSCKSSQSLLNSGNQKNYLTWYQQKPGQPPKLLIYWASTRESGVPDRFTGSGSGTDFTLTISSVQAEDLAVYYCQNDYSYPFTFGSGTKLEIK
B7: anti-GITR mouse monoclonal antibody 45F1F3 (antibody, V domains shown)
VH: DVQLQESGPGLVKPSQSLSLTCTVTGYSITIDYAWNWIRQFPGNKLEWMGYISNSGYTSYNPSLKSRISFTRDTSKNQFFLQLNSVTPEDSATYYCTRSGHYDLFDYWGQGTTLTVSS
VL: DVVMTQAPLTLSVTIGQPASISCKSSQSLFDRDGKTYLSWLLERPGQSPKRLIYLVSNLDSGVPDRFTGSGSGTDFTLKISRVEAEDLGVYYCWQGTHFPYTFGGGTKVEMK
B8: anti-GITR mouse monoclonal antibody 274C7H2 (antibody, V domains shown)
VH: QVQLQQSGAELAKPGASVKLSCKASGYTFTSYWMHWVKQRPGQGLEWIGYINPSSGYTKYNQKFKDKATLTADKSSSTAYMQLSSLTYEDSAVYYCARNPSYDYYAMDYWGQGTSVTVSS
VL: QAVVTQESALTTSPGETVTLTCRSSTGAVTTSNYANWVQEKPDHLFTGLIGGTNNRAPGVPARFSGSLIGDKAALTITGAQTEDEAIYFCALWYSNHFIFGSGTKVTVL

The target in this assay is human GITR expressed on Cho-K1 cells (human) (UniProt Q9Y5U5). The assay can be described thus: FACS, Cho-K1 cells expressing human GITR, mouse mAb, iFluor 647 anti-mouse IgG detection.
Sequence of human GITR expressed on Cho-K1 cells (human) (Q9Y5U5 26-241): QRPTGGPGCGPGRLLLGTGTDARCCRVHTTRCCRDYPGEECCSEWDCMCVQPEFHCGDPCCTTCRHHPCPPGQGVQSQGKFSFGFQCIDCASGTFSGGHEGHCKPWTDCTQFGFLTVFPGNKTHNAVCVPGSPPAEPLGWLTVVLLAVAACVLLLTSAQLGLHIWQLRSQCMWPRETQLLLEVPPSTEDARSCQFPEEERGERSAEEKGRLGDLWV
Consider B1, for which the EC50 (usually the concentration giving half of the maximal effect) worked out at 2.6 ng/mL.

Turning to B2, the EC50 was 0.931 ng/mL.

As to B3, the EC50 turned out to be 0.199 ng/mL.

Consider B4, for which the EC50 amounted to 0.522 ng/mL.

Molecule B5 yielded an EC50 of 0.455 ng/mL.

For the molecule B6, the EC50 was found to be 4.97 ng/mL.

B7 gave an EC50 of 0.508 ng/mL.

On to B8, for which the EC50 was determined as 140 ng/mL.
